We go through one substance from IntAct's records for PubMed 22036564.

The target in this assay is efna1_mouse Efna1 (UniProt P52793).
Chain of efna1_mouse Efna1 (P52793 whole entry): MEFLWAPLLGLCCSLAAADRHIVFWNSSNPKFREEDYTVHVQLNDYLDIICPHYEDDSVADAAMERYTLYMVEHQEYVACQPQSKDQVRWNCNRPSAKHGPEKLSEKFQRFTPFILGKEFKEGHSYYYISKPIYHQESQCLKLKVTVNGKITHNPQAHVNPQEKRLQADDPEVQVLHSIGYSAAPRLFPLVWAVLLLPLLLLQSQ

On to “Ephrin type-A receptor 7 (Homo sapiens), Q15375 T105Q”, for which the “effect of a mutation on the interaction” value is reported as “decreasing interaction”.
